Reference: patent US20220363770A1 (Amgen, published 2022)

T1: human PAC1 receptor (human, UniProt P41586 24-468)
T1 sequence: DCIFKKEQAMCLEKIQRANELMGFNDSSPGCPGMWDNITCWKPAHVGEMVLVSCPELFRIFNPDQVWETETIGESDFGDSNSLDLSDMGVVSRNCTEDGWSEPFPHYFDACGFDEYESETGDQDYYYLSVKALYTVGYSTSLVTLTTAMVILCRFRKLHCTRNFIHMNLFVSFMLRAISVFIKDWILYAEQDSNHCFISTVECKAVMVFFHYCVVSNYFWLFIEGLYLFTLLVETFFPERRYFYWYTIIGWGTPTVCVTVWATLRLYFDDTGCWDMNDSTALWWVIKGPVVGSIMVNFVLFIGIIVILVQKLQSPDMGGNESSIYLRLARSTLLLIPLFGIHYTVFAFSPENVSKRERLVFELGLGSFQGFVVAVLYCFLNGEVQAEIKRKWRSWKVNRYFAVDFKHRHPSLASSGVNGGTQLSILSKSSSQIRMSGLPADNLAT


Legend:
[1] = molecular target: human CGRP receptor (human, UniProt Q16602 23-461; O60894 27-148); experiment: cell-based or functional assay
[2] = molecular target: T1, human PAC1 receptor; experiment: cell-based or functional assay

Sequence of human CGRP receptor (Q16602 23-461 limits assumed, chain 1 of 2): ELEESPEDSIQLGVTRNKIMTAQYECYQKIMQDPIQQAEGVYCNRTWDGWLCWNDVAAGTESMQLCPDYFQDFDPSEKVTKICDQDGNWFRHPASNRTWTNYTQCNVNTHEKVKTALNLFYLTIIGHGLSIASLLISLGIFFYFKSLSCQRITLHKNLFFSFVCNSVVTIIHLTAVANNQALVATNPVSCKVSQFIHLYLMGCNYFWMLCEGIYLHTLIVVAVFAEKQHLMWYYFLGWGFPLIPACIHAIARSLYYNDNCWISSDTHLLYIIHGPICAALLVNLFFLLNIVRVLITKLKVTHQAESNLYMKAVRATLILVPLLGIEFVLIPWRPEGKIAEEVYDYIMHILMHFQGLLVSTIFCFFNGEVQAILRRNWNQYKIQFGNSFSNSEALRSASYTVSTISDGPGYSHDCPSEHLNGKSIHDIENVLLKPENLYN
Sequence of human CGRP receptor (O60894 27-148 limits assumed, chain 2 of 2): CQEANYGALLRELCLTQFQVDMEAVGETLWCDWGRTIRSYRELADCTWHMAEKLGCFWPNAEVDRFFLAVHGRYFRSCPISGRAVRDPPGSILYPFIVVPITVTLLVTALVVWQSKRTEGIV

Binder | Fold-improvement over 4E4 Ab [1] [fold] | IC50 [1] [nM] | Fold-improvement over 29G4v22 Ab [2] [fold] | IC50 [2] [nM]
iPS:454747 (bispecific antibody, human IgG1, kappa, lambda, N297G) light 1: QSVLTQPPSVSAAPGQKVTISCSGSYSNIGRYSVSWYQQLPGTAPKLLIYDNNKRPSGIPDRFSGSKSGTSATLGITGLQTGDEADYYCGTWDSRLSAVVFGGGTKLTVLGQPKAAPSVTLFPPSSEELQANKATLVCLISDFYPGAVTVAWKADSSPVKAGVETTTPSKQSNNKYAAKSYLSLTPEQWKSHRSYSCQVTHEGSTVEKTVAPTECS heavy 1: QVQLVESGGGVVQPGRSLRLSCAASGFTFSSFGMHWVRQAPGKGLEWVAVISFDGSIKYSVDSVKGRFTISRDNSKNTLFLQMNSLRAEDTAVYYCARDRLNYYESSGYYHYKYYGMAVWGQGTTVTVSSASTKGPSVFPLAPSSKSTSGGTAALGCLVKDYFPEPVTVSWNSGALTSGVHTFPAVLQSSGLYSLESVVTVPSSSLGTQTYICNVNHKPSNTKVDKKVEPKSCDKTHTCPPCPAPELLGGPSVFLFPPKPKDTLMISRTPEVTCVVVDVSHEDPEVKFNWYVDGVEVHNAKTKPCEEQYGSTYRCVSVLTVLHQDWLNGKEYKCKVSNKALPAPIEKTISKAKGQPREPQVYTLPPSRKKMTKNQVSLTCLVKGFYPSDIAVEWESNGQPENNYKTTPPVLKSDGSFFLYSKLTVDKSRWQQGNVFSCSVMHEALHNHYTQKSLSLSPGK light 2: EIVLTQSPATLSLSPGERATLSCRASRAVSNLHWYQQKPGQAPRLLIKYASQSLSGIPARFSGSGSGTDFTLTISSLEPEDFAVYYCHQSSYLPFTFGPGTKVDIKRTVAAPSVFIFPPSDEQLKSGTASVVCLLNNFYPREAKVQWKVDNALQSGNSQESVTEQDSKDSTYSLESTLTLSKADYEKHKVYACEVTHQGLSSPVTKSFNRGEC heavy 2: not shown | 1.2 | 0.49 | 2 | 3.09
iPS:454743 (bispecific antibody, human IgG1, kappa, lambda, N297G) light 1: QSVLTQPPSVSAAPGQKVTISCSGSYSNIGRYSVSWYQQLPGTAPKLLIYDNNKRPSGIPDRFSGSKSGTSATLGITGLQTGDEADYYCGTWDSRLSAVVFGGGTKLTVLGQPKAAPSVTLFPPSSEELQANKATLVCLISDFYPGAVTVAWKADSSPVKAGVETTTPSKQSNNKYAAKSYLSLTPEQWKSHRSYSCQVTHEGSTVEKTVAPTECS heavy 1: QVQLVESGGGVVQPGRSLRLSCAASGFTFSSFGMHWVRQAPGKGLEWVAVISFDGSIKYSVDSVKGRFTISRDNSKNTLFLQMNSLRAEDTAVYYCARDRLNYYESSGYYHYKYYGMAVWGQGTTVTVSSASTKGPSVFPLAPSSKSTSGGTAALGCLVKDYFPEPVTVSWNSGALTSGVHTFPAVLQSSGLYSLESVVTVPSSSLGTQTYICNVNHKPSNTKVDKKVEPKSCDKTHTCPPCPAPELLGGPSVFLFPPKPKDTLMISRTPEVTCVVVDVSHEDPEVKFNWYVDGVEVHNAKTKPCEEQYGSTYRCVSVLTVLHQDWLNGKEYKCKVSNKALPAPIEKTISKAKGQPREPQVYTLPPSRKKMTKNQVSLTCLVKGFYPSDIAVEWESNGQPENNYKTTPPVLKSDGSFFLYSKLTVDKSRWQQGNVFSCSVMHEALHNHYTQKSLSLSPGK light 2: EIVLTQSPATLSLSPGERATLSCRASKSVGQSLHWYQQKPGQAPRLLIKYASQSLSGIPARFSGSGSGTDFTLTISSLEPEDFAVYYCHQSSRLPFTFGPGTKVDIKRTVAAPSVFIFPPSDEQLKSGTASVVCLLNNFYPREAKVQWKVDNALQSGNSQESVTEQDSKDSTYSLESTLTLSKADYEKHKVYACEVTHQGLSSPVTKSFNRGEC heavy 2: not shown | 1.1 | 0.52 | 3.8 | 1.66

More lines, now with the values ahead:

Fold-improvement over 4E4 Ab [1] [fold] | IC50 [1] [nM] | Fold-improvement over 29G4v22 Ab [2] [fold] | IC50 [2] [nM] | Binder
0.8 | 0.64 | 4.2 | 1.58 | iPS:454741 (bispecific antibody, human IgG1, kappa, lambda, N297G) light 1: QSVLTQPPSVSAAPGQKVTISCSGSYSNIGRYSVSWYQQLPGTAPKLLIYDNNKRPSGIPDRFSGSKSGTSATLGITGLQTGDEADYYCGTWDSRLSAVVFGGGTKLTVLGQPKAAPSVTLFPPSSEELQANKATLVCLISDFYPGAVTVAWKADSSPVKAGVETTTPSKQSNNKYAAKSYLSLTPEQWKSHRSYSCQVTHEGSTVEKTVAPTECS heavy 1: QVQLVESGGGVVQPGRSLRLSCAASGFTFSSFGMHWVRQAPGKGLEWVAVISFDGSIKYSVDSVKGRFTISRDNSKNTLFLQMNSLRAEDTAVYYCARDRLNYYESSGYYHYKYYGMAVWGQGTTVTVSSASTKGPSVFPLAPSSKSTSGGTAALGCLVKDYFPEPVTVSWNSGALTSGVHTFPAVLQSSGLYSLESVVTVPSSSLGTQTYICNVNHKPSNTKVDKKVEPKSCDKTHTCPPCPAPELLGGPSVFLFPPKPKDTLMISRTPEVTCVVVDVSHEDPEVKFNWYVDGVEVHNAKTKPCEEQYGSTYRCVSVLTVLHQDWLNGKEYKCKVSNKALPAPIEKTISKAKGQPREPQVYTLPPSRKKMTKNQVSLTCLVKGFYPSDIAVEWESNGQPENNYKTTPPVLKSDGSFFLYSKLTVDKSRWQQGNVFSCSVMHEALHNHYTQKSLSLSPGK light 2: EIVLTQSPATLSLSPGERATLSCRASKSVGQSLHWYQQKPGQAPRLLIKYASQSLSGIPARFSGSGSGTDFTLTISSLEPEDFAVYYCHQSSRLPFTFGPGTKVDIKRTVAAPSVFIFPPSDEQLKSGTASVVCLLNNFYPREAKVQWKVDNALQSGNSQESVTEQDSKDSTYSLESTLTLSKADYEKHKVYACEVTHQGLSSPVTKSFNRGEC heavy 2: not shown
1.3 | 0.46 | 5.2 | 1.2 | iPS:454745 (bispecific antibody, human IgG1, kappa, lambda, N297G) light 1: QSVLTQPPSVSAAPGQKVTISCSGSYSNIGRYSVSWYQQLPGTAPKLLIYDNNKRPSGIPDRFSGSKSGTSATLGITGLQTGDEADYYCGTWDSRLSAVVFGGGTKLTVLGQPKAAPSVTLFPPSSEELQANKATLVCLISDFYPGAVTVAWKADSSPVKAGVETTTPSKQSNNKYAAKSYLSLTPEQWKSHRSYSCQVTHEGSTVEKTVAPTECS heavy 1: QVQLVESGGGVVQPGRSLRLSCAASGFTFSSFGMHWVRQAPGKGLEWVAVISFDGSIKYSVDSVKGRFTISRDNSKNTLFLQMNSLRAEDTAVYYCARDRLNYYESSGYYHYKYYGMAVWGQGTTVTVSSASTKGPSVFPLAPSSKSTSGGTAALGCLVKDYFPEPVTVSWNSGALTSGVHTFPAVLQSSGLYSLESVVTVPSSSLGTQTYICNVNHKPSNTKVDKKVEPKSCDKTHTCPPCPAPELLGGPSVFLFPPKPKDTLMISRTPEVTCVVVDVSHEDPEVKFNWYVDGVEVHNAKTKPCEEQYGSTYRCVSVLTVLHQDWLNGKEYKCKVSNKALPAPIEKTISKAKGQPREPQVYTLPPSRKKMTKNQVSLTCLVKGFYPSDIAVEWESNGQPENNYKTTPPVLKSDGSFFLYSKLTVDKSRWQQGNVFSCSVMHEALHNHYTQKSLSLSPGK light 2: EIVLTQSPATLSLSPGERATLSCRASKAVGFSLHWYQQKPGQAPRLLIKYASQSLSGIPARFSGSGSGTDFTLTISSLEPEDFAVYYCHQSSFLPFTFGPGTKVDIKRTVAAPSVFIFPPSDEQLKSGTASVVCLLNNFYPREAKVQWKVDNALQSGNSQESVTEQDSKDSTYSLESTLTLSKADYEKHKVYACEVTHQGLSSPVTKSFNRGEC heavy 2: not shown
